No end group written: not given here. *: point of attachment. Biotin = O=C1N[C@H]2[C@H](CS[C@H]2CCCCC(=O)*)N1
Tests used:
[1] = target: T1, asyn_113-127 (human); assay: Ala-scan peptide ELISA, row B, run 1
T1 construct: also called pep1
T1 peptide: Biotin-LEDMPVDPDNEAYEM
Method: (§1) 96-well Nunc plates were coated with 50 μL per well of 1 μg/mL streptavidin (from Jackson Immuno Research Laboratory) in PBS at 4° C. overnight. The plates were washed three times with PBST, and blocked with PBS containing 3% BSA at room temperature for 1 hour. The N-terminal biotinylated peptides were dissolved in Milli Q water to a concentration of 2 mg/mL, then further diluted to a concentration of 2 μg/mL with PBS. 50 μl of the diluted peptide was applied to the streptavidin-coated plates and incubated at 4° C. overnight. 2 μg/mL of biotinylated human alpha-synuclein was used as the positive control. The plates were washed three times with PBST before use. Purified antibody was diluted by serial dilution methods, from 20 μg/mL to 1 ng/mL, and 50 μL of the antibody solution was added to the peptide-coated wells. The plates were incubated for 1 hour at room temperature, then washed three times with PBST. Secondary detection antibody (goat anti-rat HRP (obtained from Southern Biotech)) was added with 1:5,000 dilutions and incubated for 1 hour at room temperature, then washed three times with PBST. Plates were developed with 50 μL/well of TMB substrate (Thermo Fisher) and quenched with 50 μL/well of 1 N sulfuric acid. The signal was quantified on a BioTek® plate reader at A450. A parallel repeat was performed for each peptide in a separate plate.

[2] = target: T2, asyn_113-127_113A (human); assay: Ala-scan peptide ELISA, row B, run 1
T2 construct: substitution is already in the entry; also called pep2
T2 peptide: Biotin-AEDMPVDPDNEAYEM
Method: as §1

[3] = target: T3, asyn_113-127_114A (human); assay: Ala-scan peptide ELISA, row B, run 1
T3 construct: substitution is already in the entry; also called pep3
T3 peptide: Biotin-LADMPVDPDNEAYEM
Method: as §1

[4] = target: T4, asyn_113-127_115A (human); assay: Ala-scan peptide ELISA, row B, run 1
T4 construct: substitution is already in the entry; also called pep4
T4 peptide: Biotin-LEAMPVDPDNEAYEM
Method: as §1

[5] = target: T5, asyn_113-127_116A (human); assay: Ala-scan peptide ELISA, row B, run 1
T5 construct: substitution is already in the entry; also called pep5
T5 peptide: Biotin-LEDAPVDPDNEAYEM
Method: as §1

[6] = target: T6, asyn_113-127_117A (human); assay: Ala-scan peptide ELISA, row B, run 1
T6 construct: substitution is already in the entry; also called pep6
T6 peptide: Biotin-LEDMAVDPDNEAYEM
Method: as §1

[7] = target: T7, asyn_113-127_118A (human); assay: Ala-scan peptide ELISA, row B, run 1
T7 construct: substitution is already in the entry; also called pep7
T7 peptide: Biotin-LEDMPADPDNEAYEM
Method: as §1

[8] = target: T8, asyn_113-127_119A (human); assay: Ala-scan peptide ELISA, row B, run 1
T8 construct: substitution is already in the entry; also called pep8
T8 peptide: Biotin-LEDMPVAPDNEAYEM
Method: as §1

[9] = target: T9, asyn_113-127_120A (human); assay: Ala-scan peptide ELISA, row B, run 1
T9 construct: substitution is already in the entry; also called pep9
T9 peptide: Biotin-LEDMPVDADNEAYEM
Method: as §1

[10] = target: T10, asyn_113-127_121A (human); assay: Ala-scan peptide ELISA, row B, run 1
T10 construct: substitution is already in the entry; also called pep10
T10 peptide: Biotin-LEDMPVDPANEAYEM
Method: as §1

[11] = target: T11, asyn_113-127_122A (human); assay: Ala-scan peptide ELISA, row B, run 1
T11 construct: substitution is already in the entry; also called pep11
T11 peptide: Biotin-LEDMPVDPDAEAYEM
Method: as §1

[12] = target: T12, asyn_113-127_123A (human); assay: Ala-scan peptide ELISA, row B, run 1
T12 construct: substitution is already in the entry; also called pep12
T12 peptide: Biotin-LEDMPVDPDNAAYEM
Method: as §1

[13] = target: T13, asyn_113-127_124G (human); assay: Ala-scan peptide ELISA, row B, run 1
T13 construct: substitution is already in the entry; also called pep13
T13 peptide: Biotin-LEDMPVDPDNEGYEM
Method: as §1

[14] = target: T14, asyn_113-127_124P (human); assay: Ala-scan peptide ELISA, row B, run 1
T14 construct: substitution is already in the entry; also called pep14
T14 peptide: Biotin-LEDMPVDPDNEPYEM
Method: as §1

[15] = target: T15, asyn_113-127_125A (human); assay: Ala-scan peptide ELISA, row B, run 1
T15 construct: substitution is already in the entry; also called pep15
T15 peptide: Biotin-LEDMPVDPDNEAAEM
Method: as §1

[16] = target: T16, asyn_113-127_126A (human); assay: Ala-scan peptide ELISA, row B, run 1
T16 construct: substitution is already in the entry; also called pep16
T16 peptide: Biotin-LEDMPVDPDNEAYAM
Method: as §1

[17] = target: T17, asyn_113-127_127A (human); assay: Ala-scan peptide ELISA, row B, run 1
T17 construct: substitution is already in the entry; also called pep17
T17 peptide: Biotin-LEDMPVDPDNEAYEA
Method: as §1

[18] = target: T18, biotinylated human alpha-synuclein (human, UniProt P37840 1-140); assay: Ala-scan peptide ELISA, row B, run 1
Method: as §1

[19] = target: T2, asyn_113-127_113A; assay: Ala-scan peptide ELISA, row C, run 2
Method: as §1

[20] = target: T4, asyn_113-127_115A; assay: Ala-scan peptide ELISA, row C, run 2
Method: as §1

[21] = target: T5, asyn_113-127_116A; assay: Ala-scan peptide ELISA, row C, run 2
Method: as §1

[22] = target: T6, asyn_113-127_117A; assay: Ala-scan peptide ELISA, row C, run 2
Method: as §1

[23] = target: T8, asyn_113-127_119A; assay: Ala-scan peptide ELISA, row C, run 2
Method: as §1

[24] = target: T9, asyn_113-127_120A; assay: Ala-scan peptide ELISA, row C, run 2
Method: as §1

[25] = target: T10, asyn_113-127_121A; assay: Ala-scan peptide ELISA, row C, run 2
Method: as §1

[26] = target: T11, asyn_113-127_122A; assay: Ala-scan peptide ELISA, row C, run 2
Method: as §1

[27] = target: T13, asyn_113-127_124G; assay: Ala-scan peptide ELISA, row C, run 2
Method: as §1

[28] = target: T16, asyn_113-127_126A; assay: Ala-scan peptide ELISA, row C, run 2
Method: as §1

[29] = target: T18, biotinylated human alpha-synuclein; assay: Ala-scan peptide ELISA, row C, run 2
Method: as §1

[30] = target: human alpha-synuclein monomer (human, UniProt P37840 1-140); assay: ELISA, plate coated with the peptide or protein, antibody titrated, anti-rat HRP, A450
Method: (§2) 96-well Nunc plates were coated with 1 pg/mL of the indicated synthetic peptide in PBS 50 μL/well overnight. The plates were washed three times with PBST, then blocked with 150 μL of 3% BSA in PBS for 1 hour. Purified antibody was diluted by serial dilution methods, from 10 pg/mL to 0.6 ng/ml, and 50 μL of the antibody solution was added to the peptide-coated wells. The plates were incubated for 1 hour at room temperature, then washed three times with PBST. Secondary detection antibody, goat anti-rat HRP (obtained from Southern Biotech) 1:5,000 diluted in BSA-PBS, was added to a concentration of 50 μL/well. Plates were incubated for one hour and washed three times with PBST. Plates were then developed with 50 μL/well of TMB substrate (obtained from Thermo Fisher) and quenched with 50 μL/well of 1 N sulfuric acid. The signal was quantified on a BioTek® plate reader at A450.

[31] = target: T19, alpha-synuclein peptide 1-61 (human); assay: as above
T19 construct: synthetic peptide coated on plate
Method: as §2

[32] = target: T20, alpha-synuclein peptide 1-95 (human); assay: as above
T20 construct: synthetic peptide coated on plate
Method: as §2

[33] = target: alpha-synuclein peptide 1-112 (human); assay: as above
Method: as §2

[34] = target: T21, alpha-synuclein peptide 95-140 (human); assay: as above
T21 construct: synthetic peptide coated on plate
Method: as §2

B1: 20H4 (antibody, rat IgG2b, V domains shown)
VH: AVQLVESGGGLVQPKESLKISCAASGFTFSNAAMYWVRQAPGKGLELLARIRTKPNNYATYHADSVKGRFTISRDDSQSMVYLHMGNLKTEDTAMYYCTADMATGDYWGPGVMVTVSS
VL: DIQMTQSPPVLSVSVGDRVTLSCKASQNINKNLDWYQQKHGEAPKPLIYSTNNLQTGVPSRFSGSGSGTDYTLTISSLQPEDVATYYCYQYKSAWTFGGGTKLELR
notes: also called clone 20H4; rat 20H4
A450 [1]: 0.501 OD
A450 [2]: 0.462 OD
A450 [3]: 0.471 OD
A450 [4]: 0.486 OD
A450 [5]: 0.501 OD
A450 [6]: 0.527 OD
A450 [7]: 0.509 OD
A450 [8]: 0.058 OD
A450 [9]: 0.393 OD
A450 [10]: 0.49 OD
A450 [11]: 0.058 OD
A450 [12]: 0.546 OD
A450 [13]: 0.366 OD
A450 [14]: 0.047 OD
A450 [15]: 0.049 OD
A450 [16]: 0.35 OD
A450 [17]: 0.333 OD
A450 [18]: 0.711 OD
A450 [19]: 0.377 OD
A450 [20]: 0.306 OD
A450 [21]: 0.393 OD
A450 [22]: 0.441 OD
A450 [23]: 0.046 OD
A450 [24]: 0.223 OD
A450 [25]: 0.281 OD
A450 [26]: 0.051 OD
A450 [27]: 0.295 OD
A450 [28]: 0.369 OD
A450 [29]: 0.976 OD
EC50 (read off the curve) [30]: ~0.2 µg/mL
binding result [31]: no binding (tested: 10 µg/ml (1 on the log axis))
binding result [32]: no binding (tested: 10 µg/ml (1 on the log axis))
binding result [33]: no binding (tested: 10 µg/ml (1 on the log axis))
EC50 (read off the curve) [34]: ~0.3 µg/mL
